Experimental data reported in US10106589B2, “Compositions and methods for immunomodulation” (FUNDACIO INSTITUT D'INVESTIGACIO BIOMEDICA DE BELLVITGE …, priority 2011, dated 2018).

B1: C4BP α7β1: major C4BP isoform, 7 identical α-chains and 1 β-chain, purified from pooled human plasma (protein, UniProt P04003 49-597; P20851 18-252, looked up)
C4b-binding protein alpha …: NCGPPPTLSFAAPMDITLTETRFKTGTTLKYTCLPGYVRSHSTQTLTCNSDGEWVYNTFCIYKRCRHPGELRNGQVEIKTDLSFGSQIEFSCSEGFFLIGSTTSRCEVQDRGVGWSHPLPQCEIVKCKPPPDIRNGRHSGEENFYAYGFSVTYSCDPRFSLLGHASISCTVENETIGVWRPSPPTCEKITCRKPDVSHGEMVSGFGPIYNYKDTIVFKCQKGFVLRGSSVIHCDADSKWNPSPPACEPNSCINLPDIPHASWETYPRPTKEDVYVVGTVLRYRCHPGYKPTTDEPTTVICQKNLRWTPYQGCEALCCPEPKLNNGEITQHRKSRPANHCVYFYGDEISFSCHETSRFSAICQGDGTWSPRTPSCGDICNFPPKIAHGHYKQSSSYSFFKEEIIYECDKGYILVGQAKLSCSYSHWSAPAPQCKALCRKPELVNGRLSVDKDQYVEPENVTIQCDSGYGVVGPQSITCSGNRTWYPEVPKCEWETPEGCEQVLTGKRLMQCLPNPEDVKMALEVYKLSLEIEQLELQRDSARQSTLDKEL
C4b-binding protein beta chain: SDAEHCPELPPVDNSIFVAKEVEGQILGTYVCIKGYHLVGKKTLFCNASKEWDNTTTECRLGHCPDPVLVNGEFSSSGPVNVSDKITFMCNDHYILKGSNRSQCLEDHTWAPPFPICKSRDCDPPGNPVHGYFEGNNFTLGSTISYYCEDRYYLVGVQEQQCVDGEWSSALPVCKLIQEAPKPECEKALLAFQESKNLCEAMENFMQQLKESGMTMEELKYSLELKKAELKAKLL
B2: C4BP (β^−): C4BP isoforms lacking beta chain: C4BP (α7β0) or C4BP (α6β0) (protein, UniProt P04003 49-597, looked up)
C4b-binding protein alpha …: B1 C4b-binding protein alpha …

Key:
[1] = system: human Mo-DCs; assay: Flow cytometry of cell surface markers on treated, LPS-matured Mo-DCs; type: cell-based; parameters: key to HLA-DR / CD40 / CD83 / CD86 / CD14 / CD1a / CCR7: (−) negligible; (+) low; (++) moderate; (+++) high
Experimental: Peripheral blood mononuclear cells (PBMCs) were obtained from buffy coat preparations belonging to healthy donors from the Blood and Tissue Bank (Barcelona, Spain) after Ficoll-Paque™ density centrifugation (GE Healthcare Bio-Sciences AB; Uppsala, Sweden). Monocytes were purified by two different methods: 1) Cells were plated at 1×10^6 cells/ml in 60 mm culture plates (Corning, Spain) in RPMI without serum and allowed to adhere for 2 h at 37° C. in 5% CO2. The non-adherent cells were removed by washing in PBS. […] 2) Cells were purified using colloidal super-paramagnetic microbeads conjugated with monoclonal mouse anti-human CD14 antibodies (MACS, Miltenyi Biotec, Auburn, Calif., or EasySep® Positive Selection Cocktail, StemCell Technologies, Grenoble, France). The purity of CD14^+ cells was tested by CD14 staining and flow cytometry analysis (>90% CD14^+ cells). Monocyte-derived DCs (Mo-DCs) were generated supplementing the monocyte cultures with complete RPMI 1640 medium plus GM-CSF (800 UI/ml) and IL-4 (500 UI/ml) (both from Gentaur, Kampenhout, Belgium) at day 0 and day 3 of culture. For DC maturation, at day 5 iDCs were further stimulated for 48 h with 5 μg/ml LPS (Escherichia coli 055.B5, Sigma L2880, Copenhagen, Denmark).
Cell surface phenotypes were analyzed using the following monoclonal antibodies: FITC-conjugated anti-HLA-DR (Immu-357), FITC-conjugated anti-CD83 (HB15a), FITC-conjugated anti-CD14 (RMO52), PE-conjugated anti-CD40 (MAB89), PE-conjugated anti-CD1a (BL6), PE-conjugated anti-CD80 (MAB104), PE-conjugated anti-CD86 (HA5.2B7) (all from Beckman-Coulter), Alexa Fluor 488-conjugated anti-CCR7 (TG8/CCR7, Biolegend, San Diego, Calif.), and the respective isotype controls from the same commercial sources. After washing with PBS, cells were subsequently stained with 3 μl MoAb/10^5 cells in 100 μl of FACS buffer (PBS containing 1% BSA and 0.1% sodium azide) for 20 min at room temp. Stained cells were analysed using a FACScalibur (Becton Dickinson). Mo-DCs were gated according to forward scatter (FSC) and side scatter (SSC) parameters. The results were analysed using CellQuestPro software (Becton Dickinson).
Both the different C4BP isoforms (α7β1, α7β0 and α6β0), and Factor H were added at 2, 5 and 10 μg/ml throughout Mo-DC differentiation, maturation, or both. Namely, for the differentiation assays the proteins were added at day 0 and replenished at day 3. For the maturation assays the proteins were added at day 5, either alone or combined with LPS. Finally, for the differentiation plus maturation assays the proteins were added at days 0, 3 and 5 (at the last time point, combined with LPS).

[2] = system: human Mo-DCs; assay: Chemotaxis transwell assay towards CCL21; type: cell-based; parameters: key to Chemotaxis (CCL21): (−) negligible; (+) low; (++) moderate; (+++) high; conditions: for migration of LPS-matured Mo-DCs towards the chemokine CCL21: transwell, 2 h
Experimental: Mo-DCs differentiated and matured (LPS for 48 h) in presence of the C4BP isoforms α7β1, α7β0, or Factor H, were tested for migration toward the CCL21 chemokine using transwell assays. Briefly, the lower chambers of transwell plates (polycarbonate filters of 8.0 μm pore size; Costar, Corning, N.Y.) were filled with 400 μl of complete RPMI with or without CCL21 (200 ng/ml). A total of 1×10^5 DCs in 100 μl of complete RPMI were added into the upper chamber, and cells were incubated at 37° C. for 2 h. Cells migrated into the lower chambers were harvested and counted with a FACScalibur flow cytometer acquiring events for a fixed time period of 2 min using CellQuest software (Becton Dickinson). The migration assays for all stimulation conditions were performed in duplicate wells. Values are given as percentage of migrated cells relative to the untreated, mDCs (100%).

[3] = system: CD3+ T lymphocytes; assay: Determination of CD4+ CD127low/negative CD25high Foxp3+ T cells; type: cell-based, human; conditions: T cells stimulated 6 days with treated, LPS-matured DCs
Experimental: CD3^+ T lymphocytes were purified from mononuclear cells by negative selection using an EasySep® Human T Cell Enrichment Kit (StemCell Technologies) following the manufacturer's instructions. Purity was >95% in all experiments. Enriched T cells were plated (10^5 cells/well) in 96-well round-bottom plates. […] Stained cells were analysed using a FACSCanto II (Becton Dickinson) and the results were analysed using FlowJo software (Tree Star, Inc, OR, USA).

[4] = system: LPS-matured DCs; assay: Phenotype stability after re-stimulation with TNF-alpha+IFN-gamma; type: cell-based, human; conditions: TNF-alpha+IFN-gamma for 24 h without immunomodulatory agents
Experimental: The stability of C4BP(β−)- or FH-treated and LPS-matured DCs was evaluated after further 24 h of induction with pro-inflammatory TNF-alpha (100 U/ml)+IFN-gamma (1000 U/ml) in complete medium without immunomodulatory agents (C4BP(β−) or FH). Median fluorescence intensities (MIF) of DC markers CD83 (A) and CD86 (B) were determined for all DC conditions (with or without TNF-alpha+IFN-gamma). iDC, immature DCs; mDC, untreated LPS-matured DCs; B-5, C4BP(β−)-treated (5 μg/ml) and LPS-matured DCs; WT5, C4BP(β+)-treated (5 μg/ml) and LPS-matured DCs; Rec2, recombinant C4BP(β−)-treated (2 μg/ml) and LPS-matured DCs; FH5, FH-treated (5 μg/ml) and LPS-matured DCs (n=6 per group).
Due to their potential use in the clinical setting, we aimed to study whether an ulterior activation of C4BP(β−)- or FH-treated and LPS-matured DCs would modify the phenotype of these tolerogenic DCs. Therefore, both untreated and C4BP(β−)- or FH-treated DCs were matured with LPS, as previously mentioned, and then re-stimulated without immunomodulatory agents (C4BP(β−) or FH) using TNF-alpha+IFN-gamma for 24 h. […] These tolerogenic C4BP(β−)- or FH-treated DCs were thus phenotypically refractory to secondary stimulation, confirming their stable non-proinflammatory profile.

[5] = system: human Mo-DCs; assay: Apoptosis determination (Annexin V / 7-ADD); type: cell-based; parameters: key: (−) negligible; (+) low; (++) moderate; (+++) high; conditions: viability; treated and LPS-induced DCs
Source text: Double staining using with the fluorescent dyes Annexin V (Annexin V-PE Apoptosis Detection Kit I, BD Pharmigen, San Diego, Calif.) and 7-amino-actinomycin D (7-ADD) (BD Pharmigen), and flow cytometry analysis, was employed to assess the viability/apoptosis status of C4BP α7β1-, C4BP α7β0-, recC4BP α6β0-, or Factor H-treated and untreated Mo-DCs.

[6] = surface marker, treated and LPS-induced DCs
[7] = treated throughout differentiation and maturation, LPS-matured

| Molecule | expression of surface markers (CD14, HLA-DR, CD40, CD80, CD83, CD86, CD1a) ([1]; treated throughout differentiation and maturation, LPS-matured, vs untreated mDC) | migration of LPS-matured Mo-DCs towards the chemokine CCL21 [2] | percentage of CD4+Foxp3+ and CD25^high, CD127^low/negative cells [3] | DC phenotype regarding the CD83 and CD86 markers after re-stimulation [4] | DC viability after re-stimulation ([4]; not shown) | surface receptor CCR7 on Mo-DCs ([1]; flow cytometry (MFI), LPS-matured) | CCR7 [1, 6] | CD1a [1, 6] | CD14 [1, 6] | CD40 [1, 6] | CD83 [1, 6] | CD86 [1, 6] | HLA-DR [1, 6] | CD40 expression [1, 7] | HLA-DR expression [1, 7] | Chemotaxis (CCL21) ([2]; functional assay, treated and LPS-induced DCs) | Apoptosis after treatment [5] |
| --- | --- | --- | --- | --- | --- | --- | --- | --- | --- | --- | --- | --- | --- | --- | --- | --- | --- |
| B1 | no effect | maximal migration |  |  |  |  |  |  |  |  |  |  |  |  |  |  |  |
| B2 |  | halted the migration | significant increase | did not induce significant changes | did not induce significant changes | consistent down-regulation | ++ | + | + | ++ | + | + | +++ | unaltered | unaltered | − | − |
